Article PMC4902875 (ACS chemical biology, 2016)

Biological target: the molecule itself
Experiment: crystal structure

B1: BexE (enzyme, Amycolotopsis orientalis sp. vinerea, UniProt D7RFJ3 1-487, looked up)
chain: MDAPVVIAGAGPAGLMLAGELRLAGIGVVVLERLPARTGESRGLGFTARTMEVFDQRGLLRRFGEVQTSDQGHFGGIPVDFGLLDGAHQAAKTIPQSATEAVLEAWAGELGADIRRGHELTGVRDDGDGVAVTVRGPAGEHVLRAGWLVGCDGGRSAVRKAVGFDFPGTAATREMFLADLRGVELEPRMIGESLPGGMVMVGPLPGGVTRIIVCERDAPPRRRTGPPPFHEVADAWKRITGIDISAAEPVWLSAFGDATRQVTEYRRGRVLLAGDAAHVHLPAGGQGMNAGIQDAVNLGWKLAAVVRGTARADLLDTYHGERHPVGVRLLMNTRAQGLLFLNGAEMQPLRDVLAELTGYPDVARHLAAMVSGLEIAYDVGGGSHPWLGRRLPRLELDRGGRPSSTAELLRPARGLLLDFAGNAALRDRAAPWAGRIDVVTARPAAGRVPGATTAVLVRPDGHVAWAAPGTHADLPMALERWFGPAPR
- binding result: binds
